Source: the nanobody polyreactivity screen of Harvey et al. (2022)

Assay: yeast display, Sf9 membrane polyspecificity reagent, FACS + sequencing; frameworks hold sequencing errors
Method in brief: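 Using colony PCR, genes from sorted yeast display clones were amplified, then sequenced on MiSeq at 2 × 250 and filtered by CDR length. The clones had been stained with 10% biotinylated, detergent-solubilized Sf9 membrane reagent for 1 hour at 4 °C and sorted by FACS into low and high (top ~1%) gates on anti-HA and streptavidin fluorescence. Polyreactivity labels come from the gate of origin.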

Row | Sequence | polyreactivity (PSR sort gate)
1 | QVQLLESGGGLVQAGGSLRLSCAASGLTICYYAMGWYRQAPGKEREYVAAITSRGGDTYYADSVKGRFTISRDNAKNTVYLEMNSLKPEDTAVYYCAVRPRYYGTYRYYYWGQGTQVTVSS | high polyreactivity
2 | QVQLLESGGGLVQAGGSLRLSCAASGLTIKQYAMGWYRQAPGKESELVAAISKSGGRTYYADSVKGRFTISRDNAKNTVYLQMNSLKPEDTAVYYCNARAGQRQGWEYDYWGQGTQVTVSS | high polyreactivity
3 | QVQLLESGGGLVQAGGSLRLSCAASGRIFNPYAMGWFRQARGKERALVAASSSCGDRTFYADSVKGRFTISRDNAKNTVYLQMNSRKPEDTAVYFCNTVVYTRFRPWRYGYCGQGTQVTVSS | high polyreactivity
4 | QVQLLESGGGLVQAGGSLRLSCAASGRIFPYNAMGWYRQAPGKERELVAAISRSGGRTYYADSVKGRFTISRDNAKNTVYLQRNSLKPEDTAVYYCAAKYQAGENYWGQGTQVTVSS | high polyreactivity
5 | QVQLLESGGGLVQAGGSLRLSCAASGRIFSFYTMGWYRQAPGKERELVAAITWRGGSTYYADSVKGRFTISRDNAKNTVYLQMNSLKPEDTAVYYCAAEVYGAVYDYWGQGTQVTVSS | low polyreactivity
6 | QVQLLESGGGLVQAGGSLRLSCAASGRIFSRYAMGWYRQAPGKERELVASISWSGDGTYYADSVKGRFTISRDNAKNTVYLQMNSLKPEDTAVYYCAAAPWDAPWSGYEYWGQGTEVTVSS | high polyreactivity
7 | QVQLLESGGGLVQAGGSLRLSCAASGRIFVRNAMGWYRQAPGKERELVAAITSSGGRTYYADSVKGRFTISRDNAKNTVYLQMNSLKPEDTAVYYCNADDFGYASYEYWGQGSQVTVSS | low polyreactivity
8 | QVQLLESGGGLVQAGGSLRLSCAASGRIIPYYAMGWYRQAPGKERELVATITSGGSTYYADSVKGRFTISRDNAKNTVYLQRNSLKPEDTAVYYCAARYPSIYYYRYDYWGQGTHVTVSS | high polyreactivity
9 | QVQLLESGGGLVQAGGSLRLSCAASGRIYLYAMGWYRQTPGKERELVAAISYSGGSTYYADSVKGRFTISRDNAKNTVYLQMNSLKPEDTAVYYCAAEAGSYWRWFWYDSWGQGTQVTVSS | high polyreactivity
10 | QVQLLESGGGLVQAGGSLRLSCAASGRTFEKNAMGWYRQAPGNERELVASITSVGSTDYADSVKGSFTISRDNAKNTVYLQMNSLKPEDNAVYYCAKTLGSQNYDFDYWGQGTQVNVSS | low polyreactivity
11 | QVQLLESGGGLVQAGGSLRLSCAASGRTFHFNAMGWYRKAPWKERELVAAITNSGGRTSYADSVKGRFTISRDNAKNTVYLQMNSLKPEDTAVYYCNVEVTYSSGKYDYWGQGTQVTVSS | low polyreactivity
12 | QVQLLESGGGLVQAGGSLRLSCAASGRTFRSYAMGWYRQAPGKERELVAAISRSDGSTYYAESVKVRFTISRDNAKNTVYLQMNSLKPEDTAVYYCARSLYASSYLMYYWGQGTQVTVSS | high polyreactivity
13 | QVQLLESGGGLVQAGGSLRLSCAASGRTFRYNAMGWYRQAPGKERELVAAITGSGGSTYYADSVKGRFTISRDNAKNTVYLQMNSLKPEDTAVYYCARAYSYRLYPYGSWGQGTQVTVSS | high polyreactivity
14 | QVQLLESGGGLVQAGGSLRLSCAASGRTFYGYTMGWYRQAPGKEWELVAAISTGGGSTYYADSVKGRFTISRDTAKNTVYLQMNSMKREDTAVYYCAARGGSYSFRRYNFWGQGTQVTVSS | high polyreactivity
15 | QVQLLESGGGLVQAGGSLRLSCAASGRTIRNNTMGWYRQAPGKERELVARITWSGGSTYYADSVKGRFTISRDNAKNNVYLKMNRLKQEDTAVYYCAAVPILVYLWFQSYTGDYDYWGQGTQVTVSS | low polyreactivity
16 | QVQLLESGGGLVQAGGSLRLSCAASGSIFRGYAMGWYRKAPGKERELVAAINWSGSSTYYADSVKGRFTISRDNAKKTVYLQMNSLKPEDTAVYYCARVYYNRNLGGDYWGQGTQVTVSS | low polyreactivity

Row | Sequence | polyreactivity (PSR sort gate)
17 | QVQLLESGGGLVQAGGSLRLSCAASGSIFSYNAMGWYRQAPGTERELVAAITSGDSTNYADSVKGRFTISRDNAKNTVYLQMNSLKPEDTAVYYCAADPVLPAFGYVGTSLGYYWGQGTQVTVSS | low polyreactivity
18 | QVQLLESGGGLVQAGGSLRLSCAASGSNFYVNAMGWYRQAPGKERELVAAITSTGTTHYADSVKGRFTISRDNAKNTDYLHMNSLKPEDTAVYYCAAYSRYQSRRYYYWGQGTQVTVSS | high polyreactivity
19 | QVQLLESGGGLVQAGGSLRLSCAASGSSFSHYTMGWYRQAPGKERELVAAINYGGASTYYADSVKGRFTISRDNAKNTVYLQMNSLKPEYTAVYYCAAANRPSEQDNYWGQGTQVTVSS | low polyreactivity
20 | QVQLLESGGGLVQAGGSLRLSCAASGSTFGVYAMGWYRQAPGKEREFVAAINARGTRTRYADSVKGRFTISRDNAKNTVYLQMNSLKPDDTAVYYCAAVWYGYYSIDTYGYWGQGTQVTVSS | high polyreactivity
21 | QVQLLESGGGLVQAGGSLRLSCAASGSTFNVYAMGWYRQAPGKERELVAAINWSGGNTYYADSVKGRFTISRDNAKNTVYLQMNSLNPEDTAVDYCNADGFVGTPSVDYDYWGQGTQVTVSS | low polyreactivity
22 | QVQLLESGGGLVQAGGSLRLSCAASGSTFQRYVMGWYRQAPGKERELVATITKSGGSTYYADSVKGRFTISRDIAKNTVYLQMNSLKPEDTAVYNCAAYLQWAFRGYYHWGQGTQVTVTS | high polyreactivity
23 | QVQLLESGGGLVQAGGSLRLSCAASGSTFYFNAMGWYSQAPGKDSELVAGIRYSGSSTYYADSVKGRFTISRDNAKNTVYLQMHSLKPEDTAVYYCAASLWRWRFSRFGYWGQGTQVTVSS | high polyreactivity
24 | QVQLLESGGGLVQAGGSLRLSCAASGSTFYINTMGWSRQAPGKERELVAAISWTGGRTYYADSVKGRFTISRDNAKNTVYLQMHSLKPEDTAVYYCAAYYNIPDRRRVGYDYWGQGTQVTVSS | high polyreactivity
25 | QVQLLESGGGLVQAGGSLRLSCAASGYFFSDNTMGWYRQAPGKERELVAAITSGGSSYYADSVKGGFTISRDIAKNTVYLQMNSLKQEDTAVYYCDKDVLHVRRVSGQYYSVDYWGQGTQVTVSS | low polyreactivity
26 | QVQLLESGGGLVQAGGSLRLSCAASGYNFGNYAMGWYRQAPGKERELVAAITSRGGRTYYADSVKGRFTISRDNAKNSFYLQMNSLIPVDTGVYYCYRAVTTKDGYWGQCTQVTVSS | high polyreactivity
27 | QVQLLESGGGLVQAGGSLRLSCAATGRIFFYGMGWYRQAPGNETELVATITSVSNTYYADSVKGRFTISRDNAKNTGYLLMNSLKPEDTAVYYCAARPDRYRYRYGYWGQGTQVTVSS | high polyreactivity
28 | QVQLLESGGGLVQAGGSLRLSCAPSGFTFLYYAMGWYIQAPGKERELVAVISRSGGRTYYADSVKGRFTISRDNAKNTVYLLMNSLKPEDTAVYYCAAALGVALNDYWGQGTQVNVSS | high polyreactivity
29 | QVQLLESGGGLVQAGGSLRLSCAPSGRIFGYYAMGWYRQEPGKERELVAAISRGGSTNYADSVKGRFTISRDNAKNTVYLQMNSLKPEDTAVYYCAALVYRSYNNYYWGQGTQVTVSS | high polyreactivity
30 | QVQLLESGGGLVQAGGSLRLSSAASGRIFLGYTMGWYRPAPGNERELVAAIRLSGGTTRYADSVKGRFTISRDNAKNTVYLQMYSLKPEDTAVYYCAARDRRTYSLYYWGQGSQVTVSS | high polyreactivity
31 | QVQLLESGGGLVQAGRSLRLSCAASGRIFVYYAMGWYRQAPGQERELVATISWSGGSTYYADSVKGRFTISRDNAKNTVYLELNSLKPEDTAVYYCAAEKYISYYSVKRQENGYWGQGSQVTVSS | low polyreactivity
32 | QVQLLESGVGLVQAGGILRLSCAASGITFSRYTMGWYRQAPGKERELVAANSSAGNTYYADSVNGRFTISRDNAKNTVYLQMNSLKPEDTAVYYCAREYTYYPRWVGYDAYGEDYWGQGTQVTVSS | low polyreactivity
